Source: patent WO2001072771A2
One block for each binder: values may come before it. No end group written: not given here.

How the values were obtained:
[1] = target: soluble IGF-1 receptor (human) (UniProt P08069); experiment: phage ELISA
[2] = target: soluble human insulin receptor (IR-Fc) (human) (UniProt P06213); experiment: phage ELISA

- ratio over background [1]: 7.2
- ratio over background [2]: 1.8
B1: H2CA-3-D8-IGFR (peptide)
peptide: NYRRQVFNGNFYDWFDRQVFSLVTPG

- ratio over background [1]: 9
- ratio over background [2]: 2.2
B2: H2CA-3-D6-IGFR (peptide)
peptide: QSPVGSSHEDFYDWFFRQVAQSGAHQ

- ratio over background [1]: 26
B3: A6L-0-H3-IR (peptide)
peptide: YRGMVLGRISGGAGKAASERPARIGQKVSAVNFYDWFV

- ratio over background [1]: 5.3
- ratio over background [2]: 0.9
B4: 20E2B-4-H8-IGFR (peptide)
peptide: PAGPCGFYCGLGLLLHGDQSP

- ratio over background [1]: 4.1
- ratio over background [2]: 1.1
B5: H2CA-2-B4-IGFR (peptide)
peptide: CCLLCRFQQNFYDWFVCQGISRLRPL

- ratio over background [1]: 4.3
B6: 20E2A-3-A12-IGFR (peptide)
peptide: LSVALSFYDALGQLVAGEGRW

- ratio over background [1]: 6
- ratio over background [2]: 0.8
B7: 20E2B-3-E12-IGFR (peptide)
peptide: VATSQGFYSGLSELLQGGGNV

- ratio over background [1]: 7
- ratio over background [2]: 1.7
B8: H2CA-2-B9-IGFR (peptide)
peptide: RAGSSDFHEDFYEWFVRQVSLSLKGK

- ratio over background [1]: 9.5
- ratio over background [2]: 1
B9: 20E2B-1-A11-IGFR (peptide)
peptide: RFSTDGFYQYLLALVGGGPVG

- ratio over background [1]: 15.6
B10: 20E2B-3-C8-IGFR (peptide)
peptide: QPAPDGFYSALMKLIGRGGVS

- ratio over background [1]: 3.8
- ratio over background [2]: 0.8
B11: H2CA-1-A3-IGFR (peptide)
peptide: APDPSDFQEIFYDWFVRQVSRMPGGG

- ratio over background [1]: 31
B12: A6L-0-E6-IR (peptide)
peptide: YRGMLVLGRSSDGAGKVAFERPARIGQTVFAVNFYDWFV

- ratio over background [1]: 5.3
- ratio over background [2]: 1.1
B13: B6Hα-3-E8-IR (peptide)
peptide: RGKTAAVIVGRPADPFYHKLSELLQGG

- ratio over background [1]: 17.7
B14: 20E2B-3-D8-IGFR (peptide)
peptide: GGTEVDFYRALERLVRGQLGL

- ratio over background [1]: 5.7
- ratio over background [2]: 1
B15: H2CA-4-F10-IGFR (peptide)
peptide: VNQSGSIHENFYDWFERQVSHQRGVR

- ratio over background [1]: 2.2
- ratio over background [2]: 0.6
B16: H2CA-1-A7-IGFR (peptide)
peptide: RCGRELYHSTFYDWFDRQVAGRTCPS

- ratio over background [1]: 5.2
- ratio over background [2]: 0.9
B17: 20E2B-4-H9-IGFR (peptide)
peptide: RCQGTGFYTCIQELIGFGDPD

- ratio over background [1]: 4.5
- ratio over background [2]: 0.6
B18: 20E2B-4-G11-IGFR (peptide)
peptide: RQGTGSFYLMLEQLLVGARGP

- ratio over background [1]: 17.8
- ratio over background [2]: 2.6
B19: 20E2B-3-D6-IGFR (peptide)
peptide: DSVGDNFYQLLESLVGGHGVG

- ratio over background [1]: 7.7
- ratio over background [2]: 1.3
B20: 20C-3-E4-IGFR (peptide)
peptide: FFYRCLSRLLGGQLGSRLGLSCIGD

- ratio over background [1]: 6.3
- ratio over background [2]: 1.3
B21: NNRPγ-4-A7-IR (peptide)
peptide: RFDPFYSYFVNLLGASA

- ratio over background [1]: 6.1
B22: B6Hα-4-G8-IR (peptide)
peptide: GGTKAVAKVGTRDDPFYHKLSELLQGS

- ratio over background [1]: 20.4
- ratio over background [2]: 3.3
B23: 20E2B-3-C4-IGFR (peptide)
peptide: ASSASGFYELLQRLAGLGLEV

- ratio over background [1]: 3.3
B24: 20E2A-4-G11-IGFR (peptide)
peptide: NVFVSFYDAIDQLVCQRIGC

- ratio over background [1]: 6.3
- ratio over background [2]: 2.2
B25: H2CA-3-E8-IGFR (peptide)
peptide: LGYQEPFQQNFYDWFVRQVSGAENAG

- ratio over background [1]: 14.7
B26: 20E2B-4-F9-IGFR (peptide)
peptide: QPDHSYFYSLLQELVGSEERL

- ratio over background [1]: 2.5
B27: 20E2A-3-A4-IGFR (peptide)
peptide: AGSVTSFYDAMEQLVATGTSA

- ratio over background [1]: 9.7
- ratio over background [2]: 0.8
B28: H2CA-4-F5-IGFR (peptide)
peptide: VGYQGQGDENFYDWFIRQVSGRLGVQ

- ratio over background [1]: 3.2
B29: B6Hα-1-B3-IR (peptide)
peptide: GCITAENGAGDPFYHKLSELGGCS

- ratio over background [1]: 5.6
- ratio over background [2]: 1.2
B30: H2CA-3-C8-IGFR (peptide)
peptide: SSCDGAGHESFYEWFVRQVSGCRSV

- ratio over background [1]: 17.3
- ratio over background [2]: 2.2
B31: 20E2B-4-F10-IGFR (peptide)
peptide: AQPCGGFYGLLEQLVGRSVCD

- ratio over background [1]: 30.8
- ratio over background [2]: 3
B32: R20 -4-20C11-IR (peptide)
peptide: DRAFYNGLRDLVGAVYGAWD

- ratio over background [1]: 7.3
- ratio over background [2]: 0.8
B33: 20E2B-4-F8-IGFR (peptide)
peptide: PVGVQGFYEGLSRLVLGRGGW

- ratio over background [1]: 5.7
- ratio over background [2]: 0.8
B34: 20E2B-2-B8-IGFR (peptide)
peptide: IWATGDFYRLLSQLVMGRVGT

- ratio over background [1]: 4.6
- ratio over background [2]: 0.3
B35: 40F-4-D1-IGFR (peptide)
peptide: LSCLAYSRHGIWRPSTDLGLGRSVGEGSVSTRWRGYDWFE

- ratio over background [1]: 6.2
- ratio over background [2]: 0.9
B36: 20E2B-3-D12-IGFR (peptide)
peptide: QGNVLDFYGWIGRLLAKQGSD

- ratio over background [1]: 5.6
B37: H2CA-4-H9-IGFR (peptide)
peptide: RGAVAGFHDQFYDWFDRQVSRVHKFG

- ratio over background [1]: 24.2
B38: B6Hα-3-E9-IR (peptide)
peptide: RCEEKQAEVGPSSDPFYHKMSELLGCR

- ratio over background [1]: 5.4
- ratio over background [2]: 1.1
B39: 20E2A-3-C7-IGFR (peptide)
peptide: VGTVAGFYDAIAQLVARASRV

- ratio over background [1]: 7.9
- ratio over background [2]: 0.8
B40: 20E2B-3-D4-IGFR (peptide)
peptide: NSRDGGFYLQLERLLGFPVTG

- ratio over background [1]: 10
- ratio over background [2]: 1.4
B41: NNRPγ-4-A9-IR (peptide)
peptide: EGSGFYGYFFSLLGLQG

- ratio over background [1]: 18.7
B42: B6Hα-3-F11-IR (peptide)
peptide: RGMKEEVLVGGSTDPFYHKLSELLQGS

- ratio over background [1]: 9.7
- ratio over background [2]: 0.8
B43: 20E2B-4-H12-IGFR (peptide)
peptide: YSCGDGFYSLLSDLLGGQFRC

- ratio over background [1]: 6.1
- ratio over background [2]: 0.9
B44: 20E2B-2-B7-IGFR (peptide)
peptide: LSSDGQFYRANLLLQGSAGR

- ratio over background [1]: 5.3
- ratio over background [2]: 0.7
B45: 20E2B-2-B3-IGFR (peptide)
peptide: ICTGQGFYQVLCGLLRGTSAR

- ratio over background [1]: 20.8
B46: 20C-3-A1-IGFR (peptide)
peptide: SSYGCDGFYLMLFSLGLVASQELEC

- ratio over background [1]: 2.6
- ratio over background [2]: 0.8
B47: B6Hα-1-A3-IR (peptide)
peptide: SRAKVEAEMPDSGDPFYHKLSELLASG

- ratio over background [1]: 9.5
- ratio over background [2]: 0.6
B48: H2CA-4-G9-IGF (peptide)
peptide: GIISQSCPESFYDWFAGQVSDPWWCW

- ratio over background [1]: 25.2
B49: 20E2Bβ-4-G7-IR (peptide)
peptide: LQPCSGFYECIERLIGVKLSG
modifications: not fully specified (bridges); cysteine pairing not given here

- ratio over background [1]: 8.8
B50: B6Hα-3-F10-IR (peptide)
peptide: GCWEWQKWHGASDPFYHKLSELGGCS

- ratio over background [1]: 33.9
- ratio over background [2]: 8.2
B51: E4D -4-H2-IR (peptide)
peptide: GFREGNFYEWFQAQVT

- ratio over background [1]: 7.3
- ratio over background [2]: 1.1
B52: H2CA-4-F6-IGFR (peptide)
peptide: AVRATRFDEAFYDWFVRQISDGQGNK

- ratio over background [1]: 5.8
- ratio over background [2]: 1.1
B53: B6Hα-2-C10-IR (peptide)
peptide: SGAKVIWTGDSGDPFYHKLSELLQGS

- ratio over background [1]: 3.1
B54: B6Hα-3-F7-IR (peptide)
peptide: SRVAATKEKRPSDDPFYHKLSELLQGS

- ratio over background [1]: 4.1
- ratio over background [2]: 1
B55: H2CA-4-H4-IGFR (peptide)
peptide: QAVQPGFHEEFYDWFVRQVSTGVGGG

- ratio over background [1]: 10.9
B56: NNRPγ-4-A1-IR (peptide)
peptide: IIGGFYSYFNSVLRLGT
